Results: patent US7892769B2, “Processing of EphA4 polypeptide by γ-secretase activity” (Eisai R&D Management Co., Ltd., priority 2007, dated 2011)

How the values were obtained:
NIH3T3 cells = assay: Lamellipodia formation (Rac1 activation indicator) after gene transfer into NIH3T3 cells; format: cell-based; settings: for lamellipodia formation promotive capacity: cotransfected with Rac1N17 (dominant negative form of Rac1); for lamellipodia formation promotive capacity / lamellipodia formation: FIG. 6, FIG. 7; for lamellipodia formation: fragment gene transfected alone, vs HA control; for ratios of lamellipodia forming cells: EICD deletion mutants transfected separately, compared with HA, FIG. 8
Procedure: In order to examine whether or not EICD produced by γ-secretase is involved in the signaling mechanism of Rho family molecules, and activation of which molecule EICD is involved in, gene transfer into NIH3T3 cells was performed, followed by analysis of the effect of EICD in the rearrangement of actin cytoskeletons in which Rho family molecules are involved. In the rearrangement, the following facts are known: when RhoA is activated, actin fibers called stress fibers are formed at the bottom of cells; when Cdc42 is activated, protrusions called filopodia are formed; when Rac1 is activated, structures called lamellipodia are formed. The effect of EICD was examined with these formations as indicators.
NIH3T3 cells were cultured in 10% CBS (flow)/Antibiotic-Antimycotic (Invitrogen)/DMEM (Invitrogen) under 5% CO2 at 37° C. Genes encoding HA-EICD (SEQ ID NO: 93) or EICD+Rac1N17 (SEQ ID NO: 200) were transfected into the cells with Lipofectamine 2000 (Invitrogen). Eighteen hours later, the cells were replated in wells provided with poly-L-lysin (SIGMA)-coated 13 mm cover glass. Eighteen hours thereafter, the cells were fixed in 2% paraformaldehyde (Wako), treated with 0.25% TritonX-100 and blocked with BlockAce (Snow Brand Milk Products). After the blocking, the cells were treated with rat anti-HA antibody (Roche), followed by reaction with FITC-linked anti-rat IgG antibody (Jackson) and Alexa Fluor phalloidin 546 (Molecular probes).
In the above-mentioned Example 6, the EphA4 fragment used in Example 5 (SEQ ID NO: 197) was transfected instead of the HA-EphA4 intracellular fragment and lamellipodia formation was analyzed in the same way.
Genes encoding HA, HA-EICD (SEQ ID NO: 93) and various EICD mutants (HA-EICD Δ1 to HA-EICD Δ4) prepared in (1) above were transfected to NIH3T3 cells separately in the same manner as described in Examples 6 and 7. Then, ratios of lamellipodia forming cells were examined. In the various EICD mutants described below, capital letters appearing at the 5′ end of the nucleotide sequences represent a nucleotide sequence encoding HA tag. Small letters appearing at the 3′ end represent a nucleotide sequence encoding EphA4 intracellular fragment.

[1] = test system: primary culture of rat hippocampal neurons; assay: Spine formation analysis by overexpression of EphA4 fragments in primary culture of rat hippocampal neurons; format: cell-based; settings: fragment gene transfected on day 9 of culture, counted twelve days after gene transfer, GFP-visualized; vs HA control; FIG. 4, FIG. 5
Procedure: Primary culture of rat hippocampal neurons were cultured in the same manner as described in Example 2. On day 9 of culture, gene transfer experiment was performed using Lipofectamine 2000 (Invitrogen) according to the manual. In order to visualize the morphology of spines, pcDNA3.1Syn1 GFP (SEQ ID NO: 306) was co-transferred into the neurons. Twelve days after the gene transfer, the neurons were fixed with 2% paraformaldehyde, treated with 0.25% TritonX-100 and blocked with BlockAce (Snow Brand Milk). After the blocking, the neurons were treated with rabbit anti-GFP antibody (Invitrogen) and rat anti-HA antibody (Roche); and reacted with FITC-linked anti-rabbit IgG antibody (Jackson), Cy3-linked anti-mouse IgG antibody (Jackson) and Cy5-linked anti-rat IgG antibody (Jackson). […] The spines (protuberances formed on dendrites) which were visualized by the expression of GFP were counted. Image data were quantitatively determined with image analysis software Metamorph (Molecular Devices). pcDNA3.1Syn1 GFP may be obtained by the procedures described below.
In the above-mentioned Example 4, the gene with an HA tag added to its N-terminus (SEQ ID NO:197), which is one of the two cleaved fragments, was transfected instead of the HA-EphA4 intracellular fragment and spine formation was analyzed in the same way based on the cleavage site specified in Example 3.

B1: HA-γ-fragment: γ-secretase-cleaved rat EphA4 intracellular fragment with N-terminal HA tag, SEQ ID NO: 198, expressed by transfection (protein)
chain: MSALLILALVGAAVAGSEFTRVEVTTNTVPSRIIGDGANSTVLLVSVSGSVVLVVILIAAFVISRRRSKYSQAKQEADEEKHLNQGVRTYVDPFTYEDPNQAVREFAKEIDASCIKIEKVIGVGEFGEVCSGRLKVPGKREICVAIKTLKAGYTDKQRRDFLSEASIMGQFDHPNIIHLEGVVTKCKPVMIITEYMENGSLDAFLRKNDGRFTVIQLVGMLRGIGSGMKYLSDMSYVHRDLAARNILVNSNLVCKVSDFGMSRVLEDDPEAAYTTRGGKIPIRWTAPEAIAYRKFTSASDVWSYGIVMWEVMSYGERPYWDMSNQDVIKAIEEGYRLPPPMDCPIALHQLMLDCWQKERSDRPKFGQIVNMLDKLIRNPNSLKRTGPESSRPNTALLDPSSPEFSAVVSVGDWLQAIKMDRYKDNFTAAGYTTLEAVVHMSQDDLARIGITAITHQNKILSSVQAMRTQMQQMHGRMVPVAAAMDYPYDVPDYA
modifications: N-terminal HA tag; synthetic DNA
lamellipodia formation promotive capacity (NIH3T3 cells): disappeared completely
lamellipodia formation (NIH3T3 cells): promotes lamellipodia formation
number of spines [1]: increases the number of spines

B2: EICD Δ3: HA-tagged EphA4 intracellular deletion mutant, 661 amino acid-Stop, SEQ ID NO: 172 (protein, listed as Rattus norvegicus)
chain: MDYPYDVPDYATRVDDKQRRDFLSEASIMGQFDHPNIIHLEGVVTKCKPVMIITEYMENGSLDAFLRKNDGRFTVIQLVGMLRGIGSGMKYLSDMSYVHRDLAARNILVNSNLVCKVSDFGMSRVLEDDPEAAYTTRGGKIPIRWTAPEAIAYRKFTSASDVWSYGIVMWEVMSYGERPYWDMSNQDVIKAIEEGYRLPPPMDCPIALHQLMLDCWQKERSDRPKFGQIVNMLDKLIRNPNSLKRTGPESSRPNTALLDPSSPEFSAVVSVGDWLQAIKMDRYKDNFTAAGYTTLEAVVHMSQDDLARIGITAITHQNKILSSVQAMRTQMQQMHGRMVPV
modifications: HA tag
ratios of lamellipodia forming cells (NIH3T3 cells): almost the same level as that of HA

B3: EICD Δ2: HA-tagged EphA4 intracellular deletion mutant, 622 amino acid-Stop, SEQ ID NO: 170 (protein, listed as Rattus norvegicus)
chain: MDYPYDVPDYATRVDKIEKVIGVGEFGEVCSGRLKVPGKREICVAIKTLKAGYTDKQRRDFLSEASIMGQFDHPNIIHLEGVVTKCKPVMIITEYMENGSLDAFLRKNDGRFTVIQLVGMLRGIGSGMKYLSDMSYVHRDLAARNILVNSNLVCKVSDFGMSRVLEDDPEAAYTTRGGKIPIRWTAPEAIAYRKFTSASDVWSYGIVMWEVMSYGERPYWDMSNQDVIKAIEEGYRLPPPMDCPIALHQLMLDCWQKERSDRPKFGQIVNMLDKLIRNPNSLKRTGPESSRPNTALLDPSSPEFSAVVSVGDWLQAIKMDRYKDNFTAAGYTTLEAVVHMSQDDLARIGITAITHQNKILSSVQAMRTQMQQMHGRMVPV
modifications: HA tag
ratios of lamellipodia forming cells (NIH3T3 cells): almost the same level as that of HA

B4: EICD Δ4: HA-tagged EphA4 intracellular deletion mutant, 701 amino acid-Stop, SEQ ID NO: 174 (protein, listed as Rattus norvegicus)
chain: MDYPYDVPDYATRVDYMENGSLDAFLRKNDGRFTVIQLVGMLRGIGSGMKYLSDMSYVHRDLAARNILVNSNLVCKVSDFGMSRVLEDDPEAAYTTRGGKIPIRWTAPEAIAYRKFTSASDVWSYGIVMWEVMSYGERPYWDMSNQDVIKAIEEGYRLPPPMDCPIALHQLMLDCWQKERSDRPKFGQIVNMLDKLIRNPNSLKRTGPESSRPNTALLDPSSPEFSAVVSVGDWLQAIKMDRYKDNFTAAGYTTLEAVVHMSQDDLARIGITAITHQNKILSSVQAMRTQMQQMHGRMVPV
modifications: HA tag
ratios of lamellipodia forming cells (NIH3T3 cells): almost the same level as that of HA

B5: EICD Δ1: HA-tagged EphA4 intracellular deletion mutant, 587 amino acid-Stop, SEQ ID NO: 168 (protein, listed as Rattus norvegicus)
chain: MDYPYDVPDYATRVDKHLNQGVRTYVDPFTYEDPNQAVREFAKEIDASCIKIEKVIGVGEFGEVCSGRLKVPGKREICVAIKTLKAGYTDKQRRDFLSEASIMGQFDHPNIIHLEGVVTKCKPVMIITEYMENGSLDAFLRKNDGRFTVIQLVGMLRGIGSGMKYLSDMSYVHRDLAARNILVNSNLVCKVSDFGMSRVLEDDPEAAYTTRGGKIPIRWTAPEAIAYRKFTSASDVWSYGIVMWEVMSYGERPYWDMSNQDVIKAIEEGYRLPPPMDCPIALHQLMLDCWQKERSDRPKFGQIVNMLDKLIRNPNSLKRTGPESSRPNTALLDPSSPEFSAVVSVGDWLQAIKMDRYKDNFTAAGYTTLEAVVHMSQDDLARIGITAITHQNKILSSVQAMRTQMQQMHGRMVPV
modifications: HA tag
ratios of lamellipodia forming cells (NIH3T3 cells): lamellipodia forming cells are increased

B6: HA-EICD: rat EphA4 intracellular domain (amino acid 571 to stop) with N-terminal HA tag, SEQ ID NO: 94, expressed by transfection (protein, listed as Rattus norvegicus)
chain: MDYPYDVPDYATRVERRRSKYSQAKQEADEEKHLNQGVRTYVDPFTYEDPNQAVREFAKEIDASCIKIEKVIGVGEFGEVCSGRLKVPGKREICVAIKTLKAGYTDKQRRDFLSEASIMGQFDHPNIIHLEGVVTKCKPVMIITEYMENGSLDAFLRKNDGRFTVIQLVGMLRGIGSGMKYLSDMSYVHRDLAARNILVNSNLVCKVSDFGMSRVLEDDPEAAYTTRGGKIPIRWTAPEAIAYRKFTSASDVWSYGIVMWEVMSYGERPYWDMSNQDVIKAIEEGYRLPPPMDCPIALHQLMLDCWQKERSDRPKFGQIVNMLDKLIRNPNSLKRTGPESSRPNTALLDPSSPEFSAVVSVGDWLQAIKMDRYKDNFTAAGYTTLEAVVHMSQDDLARIGITAITHQNKILSSVQAMRTQMQQMHGRMVPV
modifications: N-terminal HA tag
lamellipodia formation promotive capacity (NIH3T3 cells): disappeared completely
lamellipodia formation (NIH3T3 cells): lamellipodia formation is promoted
number of spines [1]: increases the number of spines
